What was measured:
Format in all cases: biochemical
[1] = CHST3 enzyme dose curve, gPAPP-coupled assay; settings: 10 mg/ml CS, 0.5 mM PAPS, 1 μg gPAPP
Protocol: (§1) In the following examples, the gPAPP used was recombinant mouse gPAPP expressed in CHO cells as an N-terminal His-tagged recombinant protein containing amino acids from E51 to K356, created by R & D Systems. The sequence was based on accession number NP 808398 from the National Center for Biotechnology Information. The chondroitin sulfate (CS) and p-nitrophenol (pNP) were obtained from Sigma Aldrich. The PAPS was prepared by R & D Systems using recombinant S. cerevisiae ATP sulurylase and P. chrysogenum APS kinase. The APS kinase was also prepared by R & D Systems. Recombinant human SULT1A1, CHST3, CD73, TNAP and Malachite Green Phosphate Detection Kit were from R & D Systems. Protein concentrations were quantified using the Bradford assay as described by Bradford, M. M., A rapid and sensitive method for the quantitation of microgram quantities of protein utilizing the principle of protein-dye binding. Anal Biochem. 1976. […] Phosphate levels were determined using the Malachite Green Phosphate Detection Kit available from R & D Systems, according to the package instructions. […]
First, the optimal concentration for CS was visually determined to be >5 mg/ml and the optimal concentration for PAPS was visually determined to be about 0.5 mM using FIGS. 10A and 10B by finding the substrate concentration corresponding to the highest point in the curves. […]

[2] = gPAPP activity: Mg2+ and pH dependence; settings: 0.025 μg gPAPP, 25 nmol PAP
Protocol: as §1
First, the activity of gPAPP in the presence of Mg^2+ was tested by combining 0.025 μg gPAPP, 25 nmol PAP and increasing amounts of Mg^2+ in 50 μL of assay buffer of 25 mM Tris at pH 7.5. […] In a second experiment, the activity of gPAPP was evaluated at various pH levels. […]

[3] = Coupling capacity of gPAPP; settings: 10 mM Mg2+, pH 7.5
Protocol: as §1
In this example, the coupling capacity of gPAPP was determined. […] The coupling capacity of gPAPP was determined by combining 1 μg gPAPP with increasing amounts of PAP, in the presence or absence of 0.5 mM PAPS in 50 μL assay buffer containing 10 mM Mg^2+ at pH 7.5 for either 20 or 40 minutes. […]

[4] = SULT1A1 enzyme dose curve, phosphatase-coupled sulfotransferase assay; settings: for rate of phosphate release: 0.25 mM PAPS, 0.25 mM pNP
Protocol: In the following examples, the gPAPP used was recombinant mouse gPAPP expressed in CHO cells as an N-terminal His-tagged recombinant protein containing amino acids from E51 to K356, created by R & D Systems. The sequence was based on accession number NP 808398 from the National Center for Biotechnology Information. The chondroitin sulfate (CS) and p-nitrophenol (pNP) were obtained from Sigma Aldrich. The PAPS was prepared by R & D Systems using recombinant S. cerevisiae ATP sulurylase and P. chrysogenum APS kinase. The APS kinase was also prepared by R & D Systems. Recombinant human SULT1A1, CHST3, CD73, TNAP and Malachite Green Phosphate Detection Kit were from R & D Systems. Protein concentrations were quantified using the Bradford assay as described by Bradford, M. M., A rapid and sensitive method for the quantitation of microgram quantities of protein utilizing the principle of protein-dye binding. Anal Biochem. 1976. Vol 72, Page 248-254, the relevant portions of which are hereby incorporated by reference. Phosphate levels were determined using the Malachite Green Phosphate Detection Kit available from R & D Systems, according to the package instructions. All examples were performed in a buffer of 25 mM Tris at pH 7.5.
A series of reactions was performed by combining various amounts of SULT1A1 with 0.25 mM PAPS and 0.25 mM pNP and with either 1 μg gPAPP alone, or both 1 μg gPAPP and 0.1 μg CD73 in 50 μL of Tris buffer containing 10 mM of MgCl2 at pH 7.5. […] Since gPAPP and CD73 together release two equivalents of phosphate from each PAP, the specific activity of SULT1A1 was averaged to 40.0±1.9 pmol/min/μg. This specific activity is consistent with the known results obtained using radioisotope assays.

B1: CHST3: recombinant human carbohydrate sulfotransferase 3 from R & D Systems (protein, UniProt Q7LGC8 1-479, looked up)
Carbohydrate sulfotransferase …: MEKGLTLPQDCRDFVHSLKMRSKYALFLVFVVIVFVFIEKENKIISRVSDKLKQIPQALADANSTDPALILAENASLLSLSELDSAFSQLQSRLRNLSLQLGVEPAMEAAGEEEEEQRKEEEPPRPAVAGPRRHVLLMATTRTGSSFVGEFFNQQGNIFYLFEPLWHIERTVSFEPGGANAAGSALVYRDVLKQLFLCDLYVLEHFITPLPEDHLTQFMFRRGSSRSLCEDPVCTPFVKKVFEKYHCKNRRCGPLNVTLAAEACRRKEHMALKAVRIRQLEFLQPLAEDPRLDLRVIQLVRDPRAVLASRMVAFAGKYKTWKKWLDDEGQDGLREEEVQRLRGNCESIRLSAELGLRQPAWLRGRYMLVRYEDVARGPLQKAREMYRFAGIPLTPQVEDWIQKNTQAAHDGSGIYSTQKNSSEQFEKWRFSMPFKLAQVVQAACGPAMRLFGYKLARDAAALTNRSVSLLEERGTFWVT
[1]
  specific activity: 1110 pmol/min/µg

B2: gPAPP: recombinant mouse gPAPP expressed in CHO cells, N-terminal His-tagged, amino acids E51 to K356 (protein, UniProt Q80V26 51-356, looked up, fragment)
chain: EVASDGGTVDLREMLAVAVLAAERGGDEVRRVRESNVLHEKSKGKTREGADDKMTSGDVLSNRKMFYLLKTAFPNVQINTEEHVDASDKEVIVWNRKIPEDILKEIAAPKEVPAESVTVWIDPLDATQEYTEDLRKYVTTMVCVAVNGKPVLGVIHKPFSEYTAWAMVDGGSNVKARSSYNEKTPKIIVSRSHAGMVKQVALQTFGNQTSIIPAGGAGYKVLALLDVPDMTQEKADLYIHVTYIKKWDICAGNAILKALGGHMTTLNGEEISYTGSDGIEGGLLASIRMNHQALVRKLPDLEKSGH
modifications: N-terminal His tag
notes: recombinant mouse gPAPP expressed in CHO cells, N-terminal His-tagged, amino acids E51 to K356
[2]; 25 mM Tris pH 7.5
  Mg2+ concentration at which maximum activity was achieved: greater than 10 mM
[2]; 10 mM Mg2+
  pH of optimal activity: ~7.5
[3]; 20 minute reaction
  coupling capacity (PAP completely hydrolysed by 1 μg gPAPP): 8 nmol
[3]; 40 minute reaction
  coupling capacity (PAP completely hydrolysed by 1 μg gPAPP): 15 nmol

B3: SULT1A1: recombinant human sulfotransferase SULT1A1 from R & D Systems (protein, UniProt P50225 1-295, looked up)
Sulfotransferase 1A1: MELIQDTSRPPLEYVKGVPLIKYFAEALGPLQSFQARPDDLLISTYPKSGTTWVSQILDMIYQGGDLEKCHRAPIFMRVPFLEFKAPGIPSGMETLKDTPAPRLLKTHLPLALLPQTLLDQKVKVVYVARNAKDVAVSYYHFYHMAKVHPEPGTWDSFLEKFMVGEVSYGSWYQHVQEWWELSRTHPVLYLFYEDMKENPKREIQKILEFVGRSLPEETVDFVVQHTSFKEMKKNPMTNYTTVPQEFMDHSISPFMRKGMAGDWKTTFTVAQNERFDADYAEKMAGCSLSFRSEL
[4]; averaged over gPAPP alone and gPAPP plus CD73
  specific activity: 40.0 ± 1.9 pmol/min/µg
[4]; coupled to both gPAPP and CD73
  rate of phosphate release: 83.7 pmol/min/µg
[4]; coupled to gPAPP alone
  rate of phosphate release: 38.1 pmol/min/µg
